Experimental data taken from paper PMC10397247.
Where two headings read alike, the source gives them in different places. Blank lines part the entries; values can stand above or below the binder they belong to.

Legend:
[1] = target: T1, P4; assay: two-hybrid library CCmax;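 further: natural log of median RNA to DNA barcode read ratio; higher means stronger binding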
T1 chain: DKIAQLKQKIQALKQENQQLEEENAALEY

[2] = target: T2, P4SN; assay: two-hybrid library CCmax; conditions: mean of both orientations;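 further: natural log of median RNA to DNA barcode read ratio; higher means stronger binding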
T2 chain: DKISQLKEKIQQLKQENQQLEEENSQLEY

[3] = target: T3, 4H2162-bA; assay: two-hybrid library CCNG1;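 further: natural log of median RNA to DNA barcode read ratio; higher means stronger binding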
T3 chain: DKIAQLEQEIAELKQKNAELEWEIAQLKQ

[4] = target: T4, 4H2233-bA; assay: two-hybrid library CCNG1;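 further: natural log of median RNA to DNA barcode read ratio; higher means stronger binding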
T4 chain: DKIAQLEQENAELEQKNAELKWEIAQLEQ

[5] = target: T5, 4H2253-bA; assay: two-hybrid library CCNG1
T5 chain: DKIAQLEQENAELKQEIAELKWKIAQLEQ

[6] = target: T6, 4H235-bA; assay: two-hybrid library CCNG1
T6 chain: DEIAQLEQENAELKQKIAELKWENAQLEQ

[7] = target: T7, 4H2444-bA; assay: two-hybrid library CCNG1
T7 chain: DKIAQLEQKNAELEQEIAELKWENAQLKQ

[8] = target: T8, 4H2518-bA; assay: two-hybrid library CCNG1
T8 chain: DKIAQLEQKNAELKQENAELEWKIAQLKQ

[9] = target: T9, 4H2585-bA; assay: two-hybrid library CCNG1
T9 chain: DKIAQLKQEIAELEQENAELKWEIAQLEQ

[10] = target: T10, 4H264-bA; assay: two-hybrid library CCNG1
T10 chain: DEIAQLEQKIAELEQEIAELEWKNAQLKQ

[11] = target: T11, 4H2760-bA; assay: two-hybrid library CCNG1
T11 chain: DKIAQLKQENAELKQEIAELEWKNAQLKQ

[12] = target: T12, 4H2859-bA; assay: two-hybrid library CCNG1
T12 chain: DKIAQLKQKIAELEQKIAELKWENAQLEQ

[13] = target: T13, 4H2931-bA; assay: two-hybrid library CCNG1
T13 chain: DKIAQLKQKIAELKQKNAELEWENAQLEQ

[14] = target: T14, 4H3041-bA; assay: two-hybrid library CCNG1
T14 chain: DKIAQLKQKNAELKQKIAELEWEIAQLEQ

[15] = target: T15, 4H3297-bA; assay: two-hybrid library CCNG1
T15 chain: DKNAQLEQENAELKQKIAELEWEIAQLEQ

[16] = target: T16, 4H3364-bA; assay: two-hybrid library CCNG1
T16 chain: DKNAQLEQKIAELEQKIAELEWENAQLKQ

[17] = target: T17, 4H3381-bA; assay: two-hybrid library CCNG1
T17 chain: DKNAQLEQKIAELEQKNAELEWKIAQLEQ

[18] = target: T18, 4H349-bA; assay: two-hybrid library CCNG1
T18 chain: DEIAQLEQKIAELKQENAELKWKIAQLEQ

[19] = target: T19, 4H56-bA; assay: two-hybrid library CCNG1
T19 chain: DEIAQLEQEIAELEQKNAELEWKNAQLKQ

[20] = target: T20, 4H730-bA; assay: two-hybrid library CCNG1
T20 chain: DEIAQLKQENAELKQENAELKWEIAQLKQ

[21] = target: T21, 4H796-bA; assay: two-hybrid library CCNG1
T21 chain: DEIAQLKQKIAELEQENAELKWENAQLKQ

[22] = target: T22, 4H855-bH; assay: two-hybrid library CCNG1
T22 chain: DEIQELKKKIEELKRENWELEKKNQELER

[23] = target: T23, 4H932-bA; assay: two-hybrid library CCNG1
T23 chain: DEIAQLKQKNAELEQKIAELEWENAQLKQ

[24] = target: T24, 4H949-bA; assay: two-hybrid library CCNG1
T24 chain: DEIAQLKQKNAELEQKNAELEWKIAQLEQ

interaction score [1]: -1.51 | interaction score [2]: -1.65
Binder: DEIQQLEEEIAQLEWKNAARKEKNAQLKA [P3_WRA]

interaction score ([1]; mean of both orientations): 0.871 | interaction score [2]: 1.63
Binder: DEIQQLEEEIAQLEQKNAALKEKNQALKY [P3]

interaction score [3]: 0.667 | interaction score [4]: 0.431 | interaction score [5]: -0.158 | interaction score [6]: 0.118 | interaction score [7]: 0.102 | interaction score [8]: 0.642 | interaction score [9]: -0.85 | interaction score [10]: -1.08 | interaction score [11]: -0.382 | interaction score [12]: 0.326 | interaction score [13]: 1.13 | interaction score [14]: 1.37 | interaction score [15]: -0.125 | interaction score [16]: -0.464 | interaction score [17]: -1.2 | interaction score [18]: 0.82 | interaction score [19]: 0.371 | interaction score [20]: 0.193 | interaction score [21]: -1.31 | interaction score [22]: -2.4 | interaction score [23]: -1.48 | interaction score [24]: -0.448
Binder: DKIAQLEQEIAELKQKNAELEWEIAQLKQ [4H2162-bA]
